{"source": "paper doi:10.1101/869594", "about": "(bioRxiv, 2019)", "proteins": {"B1": {"name": "N-terminal membrane anchoring domain of mycobacterial Wag31 (domain or fragment)", "chain": "PLTPADVHNVAFSKPPIGKRGYNEDEVDAFLDLVENELTRLIEENSDLRQRINELDQEL"}}, "molecular_target": "the molecule itself", "assay": "crystal structure", "note": "Several values for one entry are separate records, joined by “and”; a condition that tells them apart may be missing. Equal values may be shown once."}
{"protein": "B1", "values": [{"measurement": "stoichiometry N", "result": "2 and 4"}]}
